Positions of bridges follow the written chain, without caps; N, C: chain ends. Non-standard residues stand in square brackets, D forms with d. 2Nal = N[C@@H](Cc1ccc2ccccc2c1)C(=O)O; Aad = N[C@@H](CCCC(=O)O)C(=O)O; Orn = NCCC[C@H](N)C(=O)O; Dab = NCC[C@H](N)C(=O)O
B1: Peptide No. 165 (peptide)
peptide: Ac-RE[Dab][dF]RW[Orn]-NH2
modifications: lactam 2-7
notes: also called Ac-Arg-cyclo(Glu-Dab-D-Phe-Arg-Trp-Orn)-NH2
B2: Peptide No. 155 (peptide)
peptide: Ac-RKN[dF]RWD-NH2
modifications: lactam 2-7
notes: also called Ac-Arg-cyclo(Lys-Asn-D-Phe-Arg-Trp-Asp)-NH2
B3: Peptide No. 160 (peptide)
peptide: Ac-R[Aad]N[dF]RW[Dab]-NH2
modifications: lactam 2-7
notes: also called Ac-Arg-cyclo(hGlu-Asn-D-Phe-Arg-Trp-Dab)-NH2
B4: Peptide No. 159 (peptide)
peptide: RXQFRWX
modifications: N-terminal Ac; Dab 2 (X); D-Phe 4; hGlu 7 (X); cyclo(Dab 2-hGlu 7); C-terminal NH2
notes: also called Ac-Arg-cyclo(Dab-Gln-D-Phe-Arg-Trp-hGlu)-NH2
B5: Peptide No. 162 (peptide)
peptide: Ac-RKN[dF]R[2Nal]D-NH2
modifications: lactam 2-7
SMILES: CC(=O)N[C@@H](CCCNC(=N)N)C(=O)N[C@H]1CCCCNC(=O)C[C@@H](C(N)=O)NC(=O)[C@H](Cc2ccc3ccccc3c2)NC(=O)[C@H](CCCNC(=N)N)NC(=O)[C@@H](Cc2ccccc2)NC(=O)[C@H](CC(N)=O)NC1=O
notes: also called Ac-Arg-cyclo(Lys-Asn-D-Phe-Arg-Nal2-Asp)-NH2
B6: Peptide No. 161 (peptide)
peptide: Ac-REN[dF]RW[Orn]-NH2
modifications: lactam 2-7
notes: also called Ac-Arg-cyclo(Glu-Asn-D-Phe-Arg-Trp-Orn)-NH2
B7: Peptide No. 28 (peptide)
peptide: RDRFRWK
modifications: N-terminal Ac; D-Phe 4; cyclo(Asp 2-Lys 7); C-terminal NH2
notes: also called Ac-Arg-cyclo(Asp-Arg-D-Phe-Arg-Trp-Lys)-NH2
B8: Peptide No. 73 (peptide)
peptide: RDRFRWK
modifications: N-terminal Ac; D-Phe 4; cyclo(Asp 2-Lys 7); C-terminal OH
notes: also called Ac-Arg-cyclo(Asp-Arg-D-Phe-Arg-Trp-Lys)-OH

The binders below were run against T1, human melanocortin receptor-4 (human, UniProt P32245 1-332) (assay: competition with [I125]-NDP-α-MSH, hMC4r HEK-293 membranes).
T1 construct: whole, on cells; cAMP assays on whole cells; also called hMC4r; MC4r
T1 sequence (P32245 whole entry): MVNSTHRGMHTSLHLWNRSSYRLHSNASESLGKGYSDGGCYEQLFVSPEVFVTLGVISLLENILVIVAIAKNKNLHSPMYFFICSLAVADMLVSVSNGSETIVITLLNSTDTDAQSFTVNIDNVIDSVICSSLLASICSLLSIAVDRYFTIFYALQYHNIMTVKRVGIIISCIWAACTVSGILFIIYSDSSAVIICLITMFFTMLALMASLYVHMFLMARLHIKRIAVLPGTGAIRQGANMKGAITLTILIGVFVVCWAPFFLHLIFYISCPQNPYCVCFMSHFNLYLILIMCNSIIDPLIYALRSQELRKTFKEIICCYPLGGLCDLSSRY

Row | Binder | Ki
1 | B1 | 0.65 nM

Each binder was assayed against T1, human melanocortin receptor-4 (assay: cell-based or functional assay).

Row | Binder | hMC4r Emax | hMC4r EC50
2 | Ac-[dR][Orn]Q[dF]RWE-NH2 (lactam 2-7) [Peptide No. 152] | 89% | –
3 | B2 | 97% | 0.189 nM
4 | B3 | 98% | 0.245 nM
5 | B4 | 99% | 0.825 nM
6 | B5 | 82% | 0.85 nM
7 | B6 | 91% | 0.413 nM
8 | Ac-[dR]DQ[dF]RWK-NH2 (lactam 2-7) [Peptide No. 71] | 89% | –

What follows are binders tested against human melanocortin receptor-1 (human, UniProt Q01726 1-317) (assay: cell-based or functional assay).
human melanocortin receptor-1, sequence (Q01726 whole entry): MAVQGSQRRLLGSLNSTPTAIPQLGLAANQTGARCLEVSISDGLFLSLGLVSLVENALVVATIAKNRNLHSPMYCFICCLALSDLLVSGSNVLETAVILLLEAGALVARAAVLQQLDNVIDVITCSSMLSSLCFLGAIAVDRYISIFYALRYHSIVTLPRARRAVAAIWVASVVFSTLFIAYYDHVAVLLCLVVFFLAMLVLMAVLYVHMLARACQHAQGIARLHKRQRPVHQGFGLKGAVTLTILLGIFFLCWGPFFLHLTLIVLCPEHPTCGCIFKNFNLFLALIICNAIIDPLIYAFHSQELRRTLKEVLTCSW

Row | Binder | hMC1r Emax | hMC1r EC50
9 | Ac-[dR][Orn]Q[dF]RWE-NH2 (lactam 2-7) [Peptide No. 152] | 85% | –
10 | Ac-R[Orn]N[dF]RWE-NH2 (lactam 2-7) [Peptide No. 154] | – | 25 nM
11 | Ac-[dR][Orn]N[dF]RWE-NH2 (lactam 2-7) [Peptide No. 156] | 81% | 80 nM
12 | B2 | 91% | 14 nM
13 | B4 | 98% | 26 nM
14 | Ac-R[Orn]Q[dF]RWE-NH2 (lactam 2-7) [Peptide No. 150] | 89% | –
15 | B5 | 89% | 22 nM
16 | B6 | 85% | 13 nM
17 | Ac-[dR]DQ[dF]RWK-NH2 (lactam 2-7) [Peptide No. 71] | 88% | –

Biological target: T1, human melanocortin receptor-4
Assay: cell-based or functional assay
Remark: another data set of the same source

Row | Binder | intrinsic activity (cAMP, NDP-α-MSH is 100%)
18 | Ac-R[Aad]H[dF]RW[Dab]-NH2 (lactam 2-7) [Peptide No. 126] | 101%
19 | Ac-RDH[dF]RWK-NH2 (lactam 2-7) [Peptide No. 1] | 91%
20 | Ac-RDQ[dF]RWK-NH2 (lactam 2-7) [Peptide No. 32] | 98%
21 | Ac-R[Dab]H[dF]RW[Aad]-NH2 (lactam 2-7) [Peptide No. 128] | 95%
22 | Ac-RDV[dF]RWK-NH2 (lactam 2-7) [Peptide No. 16] | 42%

Each binder was assayed against T1, human melanocortin receptor-4 (assay: ratio of Ki at hMC1r to Ki at hMC4r).

Row | Binder | binding selectivity, MC4r against MC1r
23 | B2 | 20 fold
24 | B4 | 20 fold
25 | B5 | 20 fold
26 | B6 | 20 fold

What follows are binders tested against T1, human melanocortin receptor-4 (assay: competition with Eu-NDP-α-MSH, hMC4r HEK-293 membranes).
Protocol: After incubation for 90 minutes at 37° C., the reaction was stopped by filtration over AcroWell 96-well filter plates (Pall Life Sciences). The filter plates were washed 4 times with 200 μL of ice-cold phosphate-buffered saline. DELFIA Enhancement solution (PerkinElmer Life Sciences) was added to each well. The plates were incubated on a shaker for 15 minutes and read at 340 nm excitation and 615 nm emission wavelengths. Each assay was conducted in duplicate and mean values were utilized. Ki values were determined by curve-fitting with Graph-Pad Prism® software using a one-site fixed-slope competition binding model.

Row | Binder | Ki
27 | B7 | 4 nM
28 | B8 | 60 nM
